Laboratory results from patent US20220072120A1 (University of Washington, published 2022).

Target: A/Hong_Kong/4801/2014 (H3N2) HA 1-676 Y98F GG lkr dn5B.SA (influenza A virus A/Hong_Kong/4801/2014 …)
Experiment: in vitro co-assembly; SEC, SDS-PAGE of elution peaks, negative-stain EM

B1: I53-dn5 A (designed binder)
chain: MGKYDGSKLRIGILHARWNAEIILALVLGALKRLQEFGVKRENIIIETVPGSFELPYGSKLFVEKQKRLGKPLDAIIPIGVLIKGSTMHFEYICDSTTHQLMKLNFELGIPVIFGVLTCLTDEQAEARAGLIEGKMHNHGEDWGAAAVEMATKFN
binding result: binds
